This is an account of results in patent US20240044881A1.

Assay [1] concerns the target Type I ClyA-CS nanopore (Salmonella typhi) (UniProt Q8Z727).
Assay [2] deals with Type II ClyA-CS nanopore (Salmonella typhi) (UniProt Q8Z727).
The target of assay [3] is Type I ClyA-CS nanopore (Salmonella typhi) (UniProt Q8Z727). Nature of the assay: single-channel current recording, planar lipid bilayer, -35 mV.
The target of assay [4] is Type II ClyA-CS nanopore (Salmonella typhi) (UniProt Q8Z727). The description is as above.
Assay [5] deals with Type III ClyA-CS nanopore (Salmonella typhi) (UniProt Q8Z727). Described as above.
The target in assay [6] is Type I ClyA-CS nanopore (Salmonella typhi) (UniProt Q8Z727). Nature of the assay: single-channel current recording, planar lipid bilayer, -150 mV.
The target of assay [7] is Type II ClyA-CS nanopore (Salmonella typhi) (UniProt Q8Z727). The description is as above.

For the substance “human thrombin (from UniProt P00734 328-622) (enzyme)”, the HT Dwell time at -150 mV in assay [1] amounted to 1 ms. Also, the HT Dwell time at -150 mV in assay [2] came to 235 ms. In assay [3], this substance gave an HT Level 1 at -35 mV, IRES % (residual current) of 56%; an HT Level 2 at -35 mV, IRES % (residual current) of 23%; an HT Occupancy of L2 at -35 mV, % of 30%; an occupancy of the more superficial binding site (level 1) at -35 mV, % of 70%. Further, in assay [4], the HT Level 1 at -35 mV, IRES % (residual current) amounted to 68% and the HT Level 2 at -35 mV, IRES % (residual current) is 31%. In assay [5], the HT Level 2 at -35 mV, IRES % (residual current) is 32%; the HT Occupancy of L2 at -35 mV, % was determined as 100%; the duration of HT blockades at -35 mV was found to be 55 ms. In assay [6], this substance gave an HT Level 2 (-150 mV), IRES, % (residual current) of 23% and an HT Occupancy of L2 at -150 mV, % of 100%. In assay [7], this substance yielded an HT Level 2 (-150 mV), IRES, % (residual current) of 31% and an HT Occupancy of L2 at -150 mV, % of 100%.
